Values quoted from earlier work as cited in patent US6294648A, “Protein having proteinase inhibitor activity” (Bayer Corporation, priority 1999, dated 2001).
Like-named read-outs stand apart in the source and are kept apart here. Each block holds one molecule with its values, some of them ahead of it.

Tests used:
proteinase 3 = target: T1, proteinase 3 (Homo sapiens, UniProt P24158)
T1 sequence (P24158 28-256): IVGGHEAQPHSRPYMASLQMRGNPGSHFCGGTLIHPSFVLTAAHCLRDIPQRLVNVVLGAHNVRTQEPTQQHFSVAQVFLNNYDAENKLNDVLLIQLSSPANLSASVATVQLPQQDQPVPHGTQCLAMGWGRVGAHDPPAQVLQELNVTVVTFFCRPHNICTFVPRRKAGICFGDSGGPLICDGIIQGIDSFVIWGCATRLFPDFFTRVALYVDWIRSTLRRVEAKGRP

cathepsin G = target: T2, cathepsin G (Homo sapiens, UniProt P08311)
T2 sequence (P08311 21-255): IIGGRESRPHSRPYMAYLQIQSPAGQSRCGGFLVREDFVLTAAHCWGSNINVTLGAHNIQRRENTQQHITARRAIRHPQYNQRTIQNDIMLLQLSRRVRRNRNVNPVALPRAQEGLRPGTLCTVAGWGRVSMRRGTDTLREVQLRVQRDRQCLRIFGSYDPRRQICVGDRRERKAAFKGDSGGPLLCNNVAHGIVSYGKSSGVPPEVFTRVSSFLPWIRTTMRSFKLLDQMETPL

[1] = system: neutrophil-induced ECM solubilization
trypsin = target: T3, trypsin (Bos taurus, UniProt P00760)
T3 construct: gene PRSS1
T3 sequence (P00760 24-246): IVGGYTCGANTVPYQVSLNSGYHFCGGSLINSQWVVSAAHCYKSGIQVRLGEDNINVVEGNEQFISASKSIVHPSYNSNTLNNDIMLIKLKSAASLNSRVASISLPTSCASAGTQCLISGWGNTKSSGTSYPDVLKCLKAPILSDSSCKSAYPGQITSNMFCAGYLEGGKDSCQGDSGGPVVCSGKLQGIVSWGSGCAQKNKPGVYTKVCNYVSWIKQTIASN

leukocyte elastase = target: T4, leukocyte elastase (Homo sapiens, UniProt P08246)
T4 sequence (P08246 30-267): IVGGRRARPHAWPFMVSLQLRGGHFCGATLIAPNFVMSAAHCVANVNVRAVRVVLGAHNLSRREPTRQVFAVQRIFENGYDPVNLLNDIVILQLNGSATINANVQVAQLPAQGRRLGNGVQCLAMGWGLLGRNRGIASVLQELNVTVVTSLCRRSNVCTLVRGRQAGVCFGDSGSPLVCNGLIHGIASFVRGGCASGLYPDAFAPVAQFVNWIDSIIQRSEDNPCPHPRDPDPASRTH

[2] = system: leukocyte elastase-induced emphysema; details: hamsters
plasmin = plasmin (Homo sapiens, UniProt P00747)
plasmin, sequence (P00747 581-810 limits assumed, species assumed): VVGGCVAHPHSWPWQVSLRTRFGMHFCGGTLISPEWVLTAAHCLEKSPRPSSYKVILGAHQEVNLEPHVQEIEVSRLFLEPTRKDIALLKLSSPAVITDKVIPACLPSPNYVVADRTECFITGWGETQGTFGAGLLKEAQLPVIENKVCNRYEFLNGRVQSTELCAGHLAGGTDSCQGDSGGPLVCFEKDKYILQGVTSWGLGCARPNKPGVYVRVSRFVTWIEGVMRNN
plasmin, sequence (P00747 97-580 partner limits assumed, species assumed): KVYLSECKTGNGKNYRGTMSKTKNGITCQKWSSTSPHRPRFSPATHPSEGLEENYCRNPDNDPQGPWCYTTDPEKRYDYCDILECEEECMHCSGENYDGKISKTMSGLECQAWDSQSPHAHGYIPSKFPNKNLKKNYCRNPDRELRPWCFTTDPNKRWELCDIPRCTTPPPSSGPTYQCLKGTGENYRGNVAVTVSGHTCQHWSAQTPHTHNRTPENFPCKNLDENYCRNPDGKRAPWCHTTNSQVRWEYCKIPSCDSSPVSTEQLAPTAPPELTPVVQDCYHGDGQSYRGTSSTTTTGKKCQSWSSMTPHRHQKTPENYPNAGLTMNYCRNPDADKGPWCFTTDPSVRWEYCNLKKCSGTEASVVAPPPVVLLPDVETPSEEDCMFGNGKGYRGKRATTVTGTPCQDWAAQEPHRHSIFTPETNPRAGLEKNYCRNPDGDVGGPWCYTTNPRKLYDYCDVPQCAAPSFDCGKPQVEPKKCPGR

- inhibition of proteinase 3, in words (proteinase 3): not proteinase 3
- inhibition of cathepsin G, in words (cathepsin G): inhibits
B1: Alpha-1-antichymotrypsin: serpin family proteinase inhibitor (protein, UniProt P01011 24-423, looked up)
Alpha-1-antichymotrypsin: HPNSPLDEENLTQENQDRGTHVDLGLASANVDFAFSLYKQLVLKAPDKNVIFSPLSISTALAFLSLGAHNTTLTEILKGLKFNLTETSEAEIHQSFQHLLRTLNQSSDELQLSMGNAMFVKEQLSLLDRFTEDAKRLYGSEAFATDFQDSAAAKKLINDYVKNGTRGKITDLIKDLDSQTMMVLVNYIFFKAKWEMPFDPQDTHQSRFYLSKKKWVMVPMMSLHHLTIPYFRDEELSCTVVELKYTGNASALFILPDQDKMEEVEAMLLPETLKRWRDSLEFREIGELYLPKFSISRDYNLNDILLQLGIEEAFTSKADLSGITGARNLAVSQVVHKAVLDVFEEGTEASAATAVKITLLSALVETRTIVRFNRPFLMIIVPTDTQNIFFMSKVTNPKQA

- Ki (chymotrypsin; read-out: Ki(1), chymotrypsin): 1000 nM
- Ki (chymotrypsin; read-out: Ki(2), chymotrypsin): 300 nM
- inhibition of trypsin, in words (trypsin): potent
B2: STI: Kunitz family inhibitor of trypsin from soybean (protein, UniProt P01070 25-205, looked up)
Trypsin inhibitor A: DFVLDNEGNPLENGGTYYILSDITAFGGIRAAPTGNERCPLTVVQSRNELDKGIGTIISSPYRIRFIAEGHPLSLKFDSFAVIMLCVGIPTEWSVVEDLPEGPAVKIGENKDAMDGWFRLERVSDDEFNNYKLVFCPQQAEDDKCGDIGISIDHDDGTRRLVVSKNKPLVVQFQKLDKESL
- inhibition of chymotrypsin, in words (chymotrypsin): significantly weaker inhibitor
- inhibition of neutrophil-induced ECM solubilization [1]: completely or nearly completely inhibit
- ET-1 degradation (activated neutrophils): abolishes ET-1 degradation almost completely

- inhibition of proteinase 3, in words (proteinase 3): inhibits
- inhibition of leukocyte elastase, in words (leukocyte elastase): inhibits
B3: Monocyte/neutrophil elastase inhibitor: a serpin family inhibitor (protein, UniProt P30740 1-379, looked up)
Leukocyte elastase inhibitor: MEQLSSANTRFALDLFLALSENNPAGNIFISPFSISSAMAMVFLGTRGNTAAQLSKTFHFNTVEEVHSRFQSLNADINKRGASYILKLANRLYGEKTYNFLPEFLVSTQKTYGADLASVDFQHASEDARKTINQWVKGQTEGKIPELLASGMVDNMTKLVLVNAIYFKGNWKDKFMKEATTNAPFRLNKKDRKTVKMMYQKKKFAYGYIEDLKCRVLELPYQGEELSMVILLPDDIEDESTGLKKIEEQLTLEKLHEWTKPENLDFIEVNVSLPRFKLEESYTLNSDLARLGVQDLFNSSKADLSGMSGARDIFISKIVHKSFVEVNEEGTEAAAATAGIATFCMLMPEENFTADHPFLFFIRHNSSGSILFLGRFSSP

- inhibition of proteinase 3, in words (proteinase 3): only weakly inhibits
- Ki (cathepsin G): ~0.1 nM
- Ki (leukocyte elastase; read-out: Ki, leukocyte elastase): 0.37 nM
B4: Eglin C: member of the potato inhibitor 1 family from leech Hirudo medicinalis (protein, UniProt P01051 1-70, looked up)
Eglin C: TEFGSELKSFPEVVGKTVDQAREYFTLHYPQYDVYFLPEGSPVTLDLRYNRVRVFYNPGTNVVNHVPHVG
- protection against leukocyte elastase-induced emphysema / pulmonary hemorrhage [2]: completely protected

- inhibition of proteinase 3, in words (proteinase 3): not proteinase 3
- inhibition of cathepsin G, in words (cathepsin G): not
- Ki (leukocyte elastase; read-out: Ki, elastase): 0.6 nM
B5: Antileukoproteinase (SLPI): member of the mucous proteinase inhibitor family (protein, UniProt P03973 26-132, looked up)
Antileukoproteinase: SGKSFKAGVCPPKKSAQCLRYKKPECQSDWQCPGKKRCCPDTCGIKCLDPVDTPNPTRRKPGKCPVTYGQCLMLNPPNFCEMDGQCKRDLKCCMGMCGKSCVSPVKA

- Ki (chymotrypsin; read-out: Ki, chymotrypsin): 0.48 nM
- inhibition of plasmin, in words (plasmin): potent inhibitor
- Ki (trypsin): 0.01 nM
- inhibition of leukocyte elastase, in words (leukocyte elastase): not leukocyte elastase
B6: placental bikunin: Kunitz family inhibitor; potent inhibitor of plasmin (protein, UniProt O43291 28-252, looked up)
Kunitz-type protease …: ADRERSIHDFCLVSKVVGRCRASMPRWWYNVTDGSCQLFVYGGCDGNSNNYLTKEECLKKCATVTENATGDLATSRNAADSSVPSAPRRQDSEDHSSDMFNYEEYCTANAVTGPCRASFPRWYFDVERNSCNNFIYGGCRGNKNSYRSEEACMLRCFRQQENPPLPLGSKVVVLAGLFVMVLILFLGASMVYLIRVARRNQERALRTVWSSGDDKEQLVKNTYVL
